Test results as given in patent publication US20160347843A1 (UNIVERSITY OF MASSACHUSETTS, published 2016).

T1: GST-1C (glutathione S-transferase fused upstream of the sFlt1-1-specific C-terminal peptide) (human, not fully specified)
T1 construct: Bacterially expressed screening antigen coated on ELISA plates; not shown: N-terminal glutathione S-transferase (GST) fusion partner
T1 chain: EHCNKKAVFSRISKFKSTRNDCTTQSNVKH

T2: TRX-Exon14 (thioredoxin with 6-histidine tag fused upstream of the sFlt1-14-specific peptide) (human)
T2 construct: Bacterially expressed screening antigen coated on ELISA plates; not shown: N-terminal thioredoxin (TRX) with 6-histidine tag from pET32a(+)
T2 chain: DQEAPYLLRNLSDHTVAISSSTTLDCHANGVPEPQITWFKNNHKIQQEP

B1: mouse mAb 1C-KLH-18 (antibody, V domains shown)
VH: EVQLQQSGAELVRPGASVKLSCTASGVNIKDDYMNWVNQRPEQGLEWIGWIDPENGDTEYASKFQGKATITADTSSNTAYLQLSSLTSEDTAVYYCAAGYDYFPFVYWGQGTLVAVSA
VL: DVLMSQTPLSLPVSLGDQASISCRSSQNIVHSNGNTYLEWYLQKPGQSPKLLIHKVSNRFSGVPDRFSGSGSGTDFTLKISRVEAEDLGVYYCFQGSHVPFTFGSGTKLEKK
notes: Murine hybridoma mAb with a kappa light chain (VK); It was used as hybridoma supernatant or Protein A purified mAb; also called sFlt1-specific mAb; sFlt1-1-specific mAb
B2: mouse mAb EX14-1 (antibody, V domains shown)
VH: QIQLVQSGPELKKPGETVKISCTTSGYIFTTSGMSWVKQAPGKGLQWMGWINTYSGEPTYADDFKGRFAFSLETSASTAYLHINDLKNEDTATYFCARSRNNYEGFAYWGQGTLVTVSV
VL: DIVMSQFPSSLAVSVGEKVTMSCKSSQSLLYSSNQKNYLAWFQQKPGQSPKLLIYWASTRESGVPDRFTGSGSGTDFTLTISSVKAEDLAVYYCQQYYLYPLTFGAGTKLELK
notes: Murine hybridoma mAb with a kappa light chain (VK); also called sFlt1-14-specific mAb

Experiments:
[1] = target: T3, recombinant human sFlt1-14 with C-terminal 6-histidine tag, expressed in CHO cells (human, UniProt P17948 27-705); test: western blot, reducing SDS-PAGE, nitrocellulose, probed with 1C-KLH-18, HRP anti-mouse secondary
T3 construct: also called sFlt1_v2; sFlt1-e15a
Method: Specificity of mAbs to sFIt1-14 and SFIt1-1 was investigated by western blot analysis on human amniotic fluid (FIG. 3). […] As standards, human recombinant sFlt1-1 or sFlt1-14 was loaded in final quantities of 200, 100 and 50 ng. After electrophoresis and transfer to nitrocellulose membranes, blots were blocked in 5% BSA and probed with EX14-1 (FIG. 3A), 1C-KLH-18 (FIG. 3B) or a commercially available mouse anti-VEGFR1 mAb (FIG. 3C) that recognized a single protein in amniotic fluid at the expected molecular weight (˜115 kDa) that corresponds to recombinant human sFlt1-14 and sFlt1-1, respectively. After washing, an HRP-labeled anti-mouse secondary antibody was used to detect bound mAb, developed and visualized using a Kodak Gel Logic imaging system. In addition, both mouse mAbs specifically recognized their recombinant sFlt1 isoform standards by western blot.

[2] = target: T4, recombinant human sFlt1-1 with C-terminal 6-histidine tag, expressed in CHO cells (human, UniProt P17948 27-656); test: Octet QK (BLI), mAb captured on anti-murine biosensor, recombinant sFlt in solution
T4 construct: also called sFlt1_v1; sFlt1-i13
Method: (§1) Affinity of antibodies was determined using an Octet QK (ForteBio) biomolecular interaction instrument. The Octet QK performs similarly to Biacore in the measurement of antibody affinity. The Octet QK uses biosensors to assess mass increases/decreases and determine rates of association and disassociation. Anti-murine or anti-human biosensors (ForteBio) were used to capture mAb in PBS (5 ug/ml) to saturation and unbound mAb was washed away. The coated biosensors were introduced into a solution containing recombinant human sFlt1-1 or sFlt1-14 at which time Kₒₙ was determined. The sensor was then introduced into a buffer solution and the Koff determined. Using Kₒₙ and Koff an affinity (KD) was calculated.

[3] = target: T1, GST-1C (glutathione S-transferase fused …); test: ELISA of hybridoma cultures on coated GST-1C
Method: (§2) To determine reactivity of unique antibodies with sFlt1-1 and sFlt1-14, ELISA was employed. As described above, TRX-Exon14 and GST-1C peptides were expressed and purified from bacteria. ELISA plates were coated with either GST-1C (FIG. 2A) or TRX-Exon14 (FIG. 2B), blocked with BSA and a series of dilutions of each hybridoma supernatant containing mAb was incubated on the coated plates. Bound antibody was detected with anti-mouse alkaline phosphatase secondary antibody and the interaction developed with PNPP. Plates were read using a Molecular Devices Emax plate reader and antibodies with the desired specificity and highest affinity were selected for final ELISA production. These included mouse mAbs EX14-1 to detect sFlt1-14 and 1C-KLH-18 to detect sFlt1. […] A human anti sFLT antibody with properties described above (under Quantitative Capture ELISA) was also used to minimize background in the ELISAs.
(§3) To determine reactivity of unique antibodies with sFlt1-1. sFlt1-14, TRX-Exon14 (SEQ ID NO. 40) and GST-1C (SEQ ID NO. 38) isoforms, ELISA plates were coated with either GST-1C or TRX-Exon14, blocked with BSA and a series of dilutions of each hybridoma supernatant containing mAb (or purified mAb) was incubated on the coated plates. Bound antibody was detected with anti-mouse alkaline phosphatase secondary antibody (Jackson ImmunoResearch) and the interaction developed with pNPP. […]

[4] = target: T3, recombinant human sFlt1-14 with …; test: Octet QK (BLI), mAb captured on anti-murine biosensor, recombinant sFlt in solution
Method: as §1

[5] = target: T2, TRX-Exon14 (thioredoxin with …); test: ELISA of hybridoma cultures on coated TRX-Exon14
Method: as §2, §3

[6] = target: T1, GST-1C (glutathione S-transferase fused …); test: direct ELISA, plate coated with GST-1C, anti-mouse alkaline phosphatase and pNPP, OD405
Method: as §2, §3

[7] = target: T4, recombinant human sFlt1-1 with …; test: capture ELISA (human anti-sFlt capture, mouse mAb detection)
Excerpt: To measure the concentration of total sFlt and its isoforms, sFlt1-1 and sFlt1-14, in biological fluid, a capture ELISA was developed. Using an anti-sFlt human antibody to capture total sFlt and mouse antibodies 10 ugR#9, EX14-1 or 1C-KLH-18 to detect bound sFlt, allows the efficient capture of sFlt in biological fluid without high background or interference (FIG. 4). […] The sFlt1-specific mAb, 1C-KLH-18, detects recombinant human sFlt1-1, but not sFlt1-14 (FIG. 4A,B). Conversely, the sFlt1-14-specific mAb, EX14-1, detects recombinant human sFlt1-14, but not sFlt1-1 (FIG. 4A,B). In addition, each mAb detects a protein in human amniotic fluid (known from the literature to contain both sFlt isoforms; FIG. 4C) and no background is observed in normal human sera, which should contain very low levels of sFlt isoforms (FIG. 4D).
A capture ELISA format was utilized to quantify the total sFlt, sFlt1-1 or sFlt1-14 concentration in solution. Briefly, high-binding ELISA plates (Costar) were coated with 1 ug/ml of an anti-sFlt human antibody overnight at 4° C. This anti-sFlt antibody was selected to provide a capture reagent that bound both sFlt1-1 and sFlt1-14 at an epitope in their homologous regions without interfering with the availability of the epitopes bound by the antibodies of the present disclosure. […]

T4 sequence (P17948 other isoform, or with tags, fused parts or gaps): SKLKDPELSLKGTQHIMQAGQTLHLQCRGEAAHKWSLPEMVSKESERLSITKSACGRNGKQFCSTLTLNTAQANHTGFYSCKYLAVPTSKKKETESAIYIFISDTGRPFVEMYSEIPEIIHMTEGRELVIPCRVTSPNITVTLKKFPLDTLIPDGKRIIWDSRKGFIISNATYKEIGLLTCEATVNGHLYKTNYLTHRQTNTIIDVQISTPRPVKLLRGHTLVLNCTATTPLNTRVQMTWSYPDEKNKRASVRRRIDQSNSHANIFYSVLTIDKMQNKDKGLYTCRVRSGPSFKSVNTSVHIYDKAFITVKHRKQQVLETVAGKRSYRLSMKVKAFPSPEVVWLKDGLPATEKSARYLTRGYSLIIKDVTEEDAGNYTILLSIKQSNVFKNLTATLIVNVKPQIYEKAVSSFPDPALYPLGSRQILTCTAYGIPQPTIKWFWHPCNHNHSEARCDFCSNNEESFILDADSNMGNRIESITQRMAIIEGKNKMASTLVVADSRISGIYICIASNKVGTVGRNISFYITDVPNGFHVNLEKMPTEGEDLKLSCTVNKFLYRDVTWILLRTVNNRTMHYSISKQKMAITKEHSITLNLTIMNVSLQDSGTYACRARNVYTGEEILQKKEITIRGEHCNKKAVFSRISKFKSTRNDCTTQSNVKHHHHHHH
T3 sequence (P17948 other isoform, or with tags, fused parts or gaps): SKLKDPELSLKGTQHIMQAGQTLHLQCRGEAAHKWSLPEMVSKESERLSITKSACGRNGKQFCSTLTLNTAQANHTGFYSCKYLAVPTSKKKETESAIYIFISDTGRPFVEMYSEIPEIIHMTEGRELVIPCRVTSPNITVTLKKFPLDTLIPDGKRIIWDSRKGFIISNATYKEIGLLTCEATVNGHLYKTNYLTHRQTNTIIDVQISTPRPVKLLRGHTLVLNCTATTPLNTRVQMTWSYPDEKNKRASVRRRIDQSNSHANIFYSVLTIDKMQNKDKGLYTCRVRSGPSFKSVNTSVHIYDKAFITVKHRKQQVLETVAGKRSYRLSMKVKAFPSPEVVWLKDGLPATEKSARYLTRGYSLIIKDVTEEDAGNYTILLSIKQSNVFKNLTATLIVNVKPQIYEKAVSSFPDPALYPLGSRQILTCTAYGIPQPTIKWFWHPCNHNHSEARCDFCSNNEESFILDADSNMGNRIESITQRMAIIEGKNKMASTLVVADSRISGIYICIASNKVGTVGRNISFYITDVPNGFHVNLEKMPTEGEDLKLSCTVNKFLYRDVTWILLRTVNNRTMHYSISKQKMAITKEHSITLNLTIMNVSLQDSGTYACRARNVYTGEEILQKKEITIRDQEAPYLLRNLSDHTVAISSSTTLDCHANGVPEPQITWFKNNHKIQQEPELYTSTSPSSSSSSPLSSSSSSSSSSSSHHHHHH

Row | Binder | binding result [1] | Kd [2] | binding result [3] | Kd [4] | binding result [5] | binding result [6] | binding result [7]
1 | B1 | no binding (tested: 200 ng per lane) | 4.3 nM | binds | – | – | – | –
2 | B2 | – | – | – | 39.5 nM | binds | no binding | no binding
